Substrate in series [1]: Nc1nc2c(c(=O)[nH]1)N=C(CNc1ccc(C(=O)N[C@@H](CCC(=O)O)C(=O)O)cc1)CN2
Nature of the series: steady-state kinetics. As to conditions: 45 °C, light enzyme (natural isotope abundance), co-substrate NADPH, steady-state kinetics at pH 7. The format is biochemical, Thermotoga maritima.

Substrate in series [2]: NC(=O)C1=CN([C@@H]2O[C@H](COP(=O)(O)OP(=O)(O)OC[C@H]3O[C@@H](n4cnc5c(N)ncnc54)[C@H](OP(=O)(O)O)[C@@H]3O)[C@@H](O)[C@H]2O)C=CC1
Nature of the series: steady-state kinetics. The format is biochemical, Thermotoga maritima. The note with it: 45 °C, light enzyme (natural isotope abundance), co-substrate dihydrofolate, steady-state kinetics at pH 7.

Our source for the Km values is publication PMC4046772, “Different Dynamical Effects in Mesophilic and Hyperthermophilic Dihydrofolate Reductases” (Journal of the American Chemical Society, 2014).

The term Km denotes the concentration of substrate that gives half-maximal velocity.

B1: TmDHFR (Thermotoga maritima MSB8) (protein)
chain: MAKVIFVLAMDVSGKIASSVESWSSFEDRKNFRKITTEIGNVVMGRITFEEIGRPLPERLNVVLTRRPKTSNNPSLVFFNGSPADVVKFLEGKGYERVAVIGGKTVFTEFLREKLVDELFVTVEPYVFGKGIPFFDEFEGYFPLKLLEMRRLNERGTLFLKYSVEKSHR
notes: purified homodimer, natural isotope abundance (light) enzyme; procedures in supplement
Turning to B1, the Km in “steady-state kinetics [1]” and in the series “steady-state kinetics [2]” was 1 µM each time.
